From article PMC7841142
Values joined by “and” are separate entries in the source; they are usually repeats but may differ in a detail not shown here. Equal values may be shown once.

T1: Fgfr1a-IIIc, membrane-bound, Myc- and 6x His-tagged (complete coding sequence), on CHO-K1 cells (zebrafish), Q90Z00
T1 chain: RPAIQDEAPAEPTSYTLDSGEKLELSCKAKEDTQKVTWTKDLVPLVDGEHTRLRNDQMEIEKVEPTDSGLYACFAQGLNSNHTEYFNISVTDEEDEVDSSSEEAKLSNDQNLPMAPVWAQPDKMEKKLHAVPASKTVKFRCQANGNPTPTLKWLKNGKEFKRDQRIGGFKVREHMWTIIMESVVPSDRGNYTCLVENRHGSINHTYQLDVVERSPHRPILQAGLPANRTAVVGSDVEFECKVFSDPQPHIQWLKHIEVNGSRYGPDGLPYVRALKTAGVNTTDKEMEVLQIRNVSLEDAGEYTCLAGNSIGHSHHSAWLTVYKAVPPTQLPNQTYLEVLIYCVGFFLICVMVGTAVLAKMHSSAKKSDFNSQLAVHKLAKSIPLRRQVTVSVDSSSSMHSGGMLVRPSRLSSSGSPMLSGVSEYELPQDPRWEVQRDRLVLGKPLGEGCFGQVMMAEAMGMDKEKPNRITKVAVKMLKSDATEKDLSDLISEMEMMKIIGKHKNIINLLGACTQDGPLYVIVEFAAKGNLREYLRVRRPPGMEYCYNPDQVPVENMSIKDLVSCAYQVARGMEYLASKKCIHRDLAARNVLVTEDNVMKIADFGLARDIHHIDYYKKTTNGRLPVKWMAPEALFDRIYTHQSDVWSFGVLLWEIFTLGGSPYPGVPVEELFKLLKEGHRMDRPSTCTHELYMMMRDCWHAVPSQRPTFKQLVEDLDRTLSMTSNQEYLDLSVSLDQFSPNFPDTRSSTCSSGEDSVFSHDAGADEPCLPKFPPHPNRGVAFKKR

B1: soluble Ncam1b-Fc (extracellular part of Ncam1b with hIgG-Fc-Tag) (Fc fusion)
chain: LQVDITPAHGEISVGESRFFLCEVIGGAKEIDWFAPAGEKIEPGRPDISVIRNDETSSTLTIYNAKVDNAGTYRCVASSGDQDAEATVNLKIYQKITFTNVPSPQEFTEGDNAIIVCDVISSPPPTVLWKYKGAKIQFDKDVRFKTLSNNHLQIRGIRKTDEGVYTCEGRIKARGEVDFRSIKVVVNVLPTIRIRQAETNATADMGFSTLLACDPDGFPEPIVTWRRNNAPLESGNKYSFNEDGSEMTVLDVTKLDEGDYTCIAKNKAGESEQELSLKVFVQPKITYLESQTTTEMDEQVTLTCEATGDPTPTITWSFGTRVFTEGEQASWTRPEQHKGPDGEVLVRSDARVSSLTLKYPQYTDAGQYLCTARNAIGETVQPVSLEVRYAPKILGSVAVYTWEGNPANISCEVLAHPSDVSITWLRDGFQLPNANTSNIKIHNTPSASYLEVNPESQSDFGNYNCTASNEIGTESREFIMIPADVPSAPSIGEVQPYSSTAQVLFEEPESTGGVPVLKYRAEWRAVGRGKWVQRVYEVKDGLSSVTVTGLKPETDYEVKMSAINGKGEGDSSPSMVFKTEHVQGEPSPPILEGTLQPKGNSLKVKWIKQDDGGSPITHYLVRYKAREDSEWKPEIRLPSGSEYVMLIGLDWDTEYDVFVVAENQQGKSKPGTLTFRTSSEPTATTDSMEDGPGLNTG
modifications: not checked

Experiments:
[1] = biological target: Ncam1b, Myc- and 6x His-tagged (complete coding sequence), in Hek293 cells (zebrafish); test: co-IP; Hek293 cells co-transfected with Myc/His-tagged Ncam1a or Ncam1b and FLAG-tagged Fgfr1a-IIIb or -IIIc; lysates precipitated with anti-His antibody and ProteinA beads, blotted with biotinylated FLAG-antibody; band density by Fiji, three independent experiments
[2] = biological target: Ncam1a, Myc- and 6x His-tagged (complete coding sequence), in Hek293 cells (zebrafish); test: as above
Sequence of Ncam1a, Myc- and 6x His-tagged (complete coding sequence), in Hek293 cells (zebrafish) (main, as listed by the source): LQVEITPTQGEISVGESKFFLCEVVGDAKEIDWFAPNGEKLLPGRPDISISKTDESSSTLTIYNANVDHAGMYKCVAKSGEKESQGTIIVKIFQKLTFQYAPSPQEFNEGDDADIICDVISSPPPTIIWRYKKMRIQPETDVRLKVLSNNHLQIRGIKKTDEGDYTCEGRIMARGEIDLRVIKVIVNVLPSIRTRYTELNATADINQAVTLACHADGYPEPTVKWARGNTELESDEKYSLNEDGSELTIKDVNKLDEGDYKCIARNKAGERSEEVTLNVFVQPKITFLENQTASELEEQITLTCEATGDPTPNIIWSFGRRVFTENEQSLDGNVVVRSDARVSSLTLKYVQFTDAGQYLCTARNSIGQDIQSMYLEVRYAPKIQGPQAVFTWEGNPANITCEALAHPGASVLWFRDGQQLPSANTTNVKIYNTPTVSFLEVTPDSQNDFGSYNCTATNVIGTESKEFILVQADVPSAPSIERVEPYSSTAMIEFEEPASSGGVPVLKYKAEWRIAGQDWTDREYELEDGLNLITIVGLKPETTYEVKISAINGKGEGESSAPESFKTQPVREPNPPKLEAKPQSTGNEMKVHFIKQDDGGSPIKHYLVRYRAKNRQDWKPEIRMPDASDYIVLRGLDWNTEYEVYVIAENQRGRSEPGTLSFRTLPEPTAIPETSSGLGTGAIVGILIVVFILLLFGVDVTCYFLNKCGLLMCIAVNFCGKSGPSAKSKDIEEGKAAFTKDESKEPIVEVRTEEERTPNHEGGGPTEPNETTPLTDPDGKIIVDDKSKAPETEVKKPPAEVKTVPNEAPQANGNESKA

[3] = biological target: Ncam1b, membrane-bound, Myc- and 6x His-tagged (complete coding sequence), on CHO-K1 cells (zebrafish); test: immunostaining of cells or tissue; cell overlay assay: transfected CHO-K1 cells (membrane-bound His-tagged protein) on fibronectin-coated coverslips incubated with 20 μg/ml soluble Fc-tagged protein for 1 h at room temperature, washed, fixed, stained with anti-His and anti-hFcγ; read out as binding coefficient (percent of transfected cells co-labelled) and as fluorescence intensity of transfected vs. untransfected cells
[4] = biological target: Fgfr1a-IIIb, membrane-bound, Myc- and 6x His-tagged (complete coding sequence, exon 9.1 variant), on CHO-K1 cells (zebrafish); test: as above
[5] = biological target: T1, Fgfr1a-IIIc, membrane-bound, Myc- and …; test: immunostaining of cells or tissue; cell overlay assay: transfected CHO-K1 cells (membrane-bound His-tagged protein) on fibronectin-coated coverslips incubated with 20 μg/ml soluble Fc-tagged protein for 1 h at room temperature, washed, fixed, stained with anti-His and anti-hFcγ; read out as binding coefficient (percent of transfected cells co-labelled) and as fluorescence intensity of transfected vs. untransfected …

Molecule | band density (Intensity Density) of co-precipitated FLAG-tagged receptor (Intensity Density) [1] | band density (Intensity Density) of co-precipitated FLAG-tagged receptor (Intensity Density) [2] | binding coefficient (percent of transfected cells co-labelled for the soluble partner) [3] [%] | also measured
Fgfr1a-IIIc, FLAG-tagged (complete coding sequence), in Hek293 cells (from UniProt Q90Z00 27-810) (receptor) | 138000 | 117000 | – | –
soluble Fgfr1a-IIIb-Fc (extracellular part of Fgfr1a-IIIb with hIgG-Fc-Tag) (Fc fusion) | – | – | 90 | –
soluble Fgfr1a-IIIc-Fc (extracellular part of Fgfr1a-IIIc with hIgG-Fc-Tag) (from UniProt Q90Z00 27-363) (Fc fusion) | – | – | 60 | –
Fgfr1a-IIIb, FLAG-tagged (complete coding sequence), in Hek293 cells (receptor) | 170000 and 203000 | 89500 | – | –
soluble Ncam1b-Fc (extracellular part of Ncam1b with hIgG-Fc-Tag) (Fc fusion) | – | – | – | binding coefficient (percent of transfected cells co-labelled for the soluble partner) [4]: 90%; fluorescence intensity of bound soluble Ncam1b, transfected over untransfected cells [4]: 80 % higher
B1 | – | – | – | binding coefficient (percent of transfected cells co-labelled for the soluble partner) [5]: 60%
